We go through five molecules from US20180340025A1 (Novartis, published 2018).

The Kd is the constant that tells how readily two partners part at equilibrium. Lower therefore signals tighter binding. As usually defined, the IC50 is the concentration that inhibits the measured activity by half. Read a high IC50 as weaker potency.

Assay [1] deals with T1, human LAG-3 expressed on cells (human, UniProt P18627 23-525).
T1 construct: whole, on cells; Treated as one protein; the host cell is named under assay; also called LAG-3-expressing CHO cells; LAG-3-transfected CHO cells
T1 sequence (looked up): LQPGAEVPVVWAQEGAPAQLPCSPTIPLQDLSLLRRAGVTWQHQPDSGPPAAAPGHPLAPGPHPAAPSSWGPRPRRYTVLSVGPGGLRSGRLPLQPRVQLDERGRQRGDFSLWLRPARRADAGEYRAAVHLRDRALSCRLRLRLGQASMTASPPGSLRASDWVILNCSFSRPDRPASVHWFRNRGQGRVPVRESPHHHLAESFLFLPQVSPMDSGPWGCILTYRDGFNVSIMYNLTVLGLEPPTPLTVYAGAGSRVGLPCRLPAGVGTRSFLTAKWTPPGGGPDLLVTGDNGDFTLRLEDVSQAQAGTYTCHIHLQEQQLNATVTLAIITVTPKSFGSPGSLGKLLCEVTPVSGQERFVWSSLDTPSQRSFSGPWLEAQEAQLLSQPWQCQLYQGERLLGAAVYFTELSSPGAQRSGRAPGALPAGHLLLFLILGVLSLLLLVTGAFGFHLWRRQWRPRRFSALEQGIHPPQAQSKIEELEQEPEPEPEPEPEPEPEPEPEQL
The experiment in a line: FACS competition: serial dilutions of the test mAb against a constant concentration of FITC-labeled murine BAP050 on LAG-3-expressing CHO cells; MFI of bound labelled mAb.

Assay [2] has as its target T1, human LAG-3 expressed on cells. The experiment in a line: FACS, human LAG-3 transfected CHO cells; human LAG-3 transfected CHO cells. On the technique in general: In flow cytometry, cells or beads pass a laser one at a time.
The target is the same in assay [3]. Briefly: FACS, human LAG-3 transfected 300.19 cells; human LAG-3 transfected 300.19 cells.
The target in assay [4] is T2, LAG-3-huIgG1 Fc fusion protein (human, UniProt P18627 23-434, limits assumed).
T2 construct: also called LAG-3-Ig; soluble LAG-3-Ig; not shown: human IgG1 Fc
T2 sequence (looked up): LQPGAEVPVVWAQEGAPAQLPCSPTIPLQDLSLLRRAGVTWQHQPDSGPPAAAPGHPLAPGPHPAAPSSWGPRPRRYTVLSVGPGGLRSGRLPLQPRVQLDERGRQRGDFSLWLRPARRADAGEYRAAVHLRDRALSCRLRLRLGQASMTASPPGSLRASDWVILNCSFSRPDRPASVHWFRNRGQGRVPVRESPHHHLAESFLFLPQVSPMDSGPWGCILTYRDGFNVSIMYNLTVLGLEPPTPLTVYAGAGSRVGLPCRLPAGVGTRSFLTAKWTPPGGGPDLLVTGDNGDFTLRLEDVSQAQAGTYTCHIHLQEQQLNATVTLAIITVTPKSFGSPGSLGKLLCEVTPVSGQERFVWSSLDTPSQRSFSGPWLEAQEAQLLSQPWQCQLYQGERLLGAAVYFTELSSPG
Briefly: competition binding assay, LAG-3-Ig binding to MHC class II on Raji cells.

Assay [5] has as its target T1, human LAG-3 expressed on cells. The experiment in a line: FACS, human T cells; human T cells.

Where a chain is given by its changes, count along the chain named. Numbers in names are those of the source.

B1: BAP050-hum05-Ser (antibody, human IgG4 S228P, kappa)
heavy: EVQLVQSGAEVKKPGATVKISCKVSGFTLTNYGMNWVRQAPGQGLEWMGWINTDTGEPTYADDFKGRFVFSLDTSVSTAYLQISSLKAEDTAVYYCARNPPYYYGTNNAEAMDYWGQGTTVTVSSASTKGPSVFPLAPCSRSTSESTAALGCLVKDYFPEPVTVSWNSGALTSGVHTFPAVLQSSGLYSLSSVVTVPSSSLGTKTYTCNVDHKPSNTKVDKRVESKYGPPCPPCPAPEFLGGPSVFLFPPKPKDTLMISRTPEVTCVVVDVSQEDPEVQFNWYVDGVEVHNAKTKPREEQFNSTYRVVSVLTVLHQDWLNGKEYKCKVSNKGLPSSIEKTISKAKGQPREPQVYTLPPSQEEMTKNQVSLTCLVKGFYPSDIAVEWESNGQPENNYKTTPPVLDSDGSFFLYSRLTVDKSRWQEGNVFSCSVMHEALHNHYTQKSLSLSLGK
light: EIVLTQSPATLSLSPGERATLSCSSSQDISNYLNWYQQKPGKAPKLLIYYTSTLHLGVPSRFSGSGSGTDFTFTISSLEAEDAATYYCQQYYNLPWTFGQGTKVEIKRTVAAPSVFIFPPSDEQLKSGTASVVCLLNNFYPREAKVQWKVDNALQSGNSQESVTEQDSKDSTYSLSSTLTLSKADYEKHKVYACEVTHQGLSSPVTKSFNRGEC
notes: C84S in VHFW3 of BAP050-hum05; IgG4(S228P)/kappa; also called clone No. 5S; huBAP050(Ser) clone
As to B1, in assay [1], the binding result is reported as “binds”.

B2: BAP050-hum13-Ser (antibody, human IgG4 S228P, kappa, V domains shown)
VH: QVQLVQSGAEVKKPGASVKVSCKASGFTLTNYGMNWVRQAPGQGLEWMGWINTDTGEPTYADDFKGRFVFSLDTSVSTAYLQISSLKAEDTAVYYCARNPPYYYGTNNAEAMDYWGQGTTVTVSS
VL: DIQMTQSPSSLSASVGDRVTITCSSSQDISNYLNWYQQKPGKAPKLLIYYTSTLHLGIPPRFSGSGYGTDFTLTINNIESEDAAYYFCQQYYNLPWTFGQGTKVEIKR
notes: C84S in VHFW3 of BAP050-hum13; IgG4(S228P)/kappa; also called clone No. 13S (printed 135); huBAP050(Ser) clone
Take B2: the binding result in assay [1] is reported as “binds”.

B3: BAP050-hum11-Ser (antibody, human IgG4 S228P, kappa, V domains shown)
VH: B2 VH with P41R, G44R, M48I
VL: DIQMTQSPSSLSASVGDRVTITCSSSQDISNYLNWYLQKPGQSPQLLIYYTSTLHLGVPSRFSGSGSGTEFTLTISSLQPDDFATYYCQQYYNLPWTFGQGTKVEIKR
notes: C84S in VHFW3 of BAP050-hum11; IgG4(S228P)/kappa; also called clone No. 11S
Turning to B3, in assay [1], the binding result was “binds”.

B4: BAP050-hum12-Ser (antibody, human IgG4 S228P, kappa, V domains shown)
VH: B2 VH with P41R, G44R, M48I
VL: EIVLTQSPDFQSVTPKEKVTITCSSSQDISNYLNWYQQKPGQAPRLLIYYTSTLHLGVPSRFSGSGSGTDFTLTISSLQPEDFATYYCQQYYNLPWTFGQGTKVEIKR
notes: C84S in VHFW3 of BAP050-hum12; IgG4(S228P)/kappa; also called huBAP050(Ser) clone
With B4, in assay [1], the binding result is reported as “binds”.

B5: murine anti-LAG-3 monoclonal antibody BAP050 (antibody, V domains shown)
VH: QIQLVQSGPELKKPGETVKISCKASGFTLTNYGMNWVRQTPGKGLKWMGWINTDTGEPTYADDFKGRFAFSLETSASTASLQINNLKNADTATYFCARNPPYYYGTNNAEAMDYWGQGTAVTVSS
VL: DIQMTQTTSSLSASLGDRVTISCSSSQDISNYLNWYQQKPDGTVKVLIYYTSTLHLGVPSRFSGSGSGTDYSLTISNLELEDIATYYCQQYYNLPWTFGGGTKLEIK
notes: also called murine mAb; parent murine mAb
Consider B5, for which the Kd amounted to 0.2 nM in assay [2], 13.6 nM in assay [3] and 0.26 nM in assay [5]. The IC50 in assay [4] turned out to be 2.3 nM.
